Key:
[1] = ESI mass spectrometry of desulfation of non-derivatized sulfated glucosamine monosaccharides; assay type: biochemical
Experimental: Electrospray ionization mass spectrometry was performed in the negative ion mode using an Agilent 1100 Series VL LC/MSD Trap. For simplicity, the samples were prepared by adding MeOH directly to the enzymatic reaction mixtures without purification and were directly injected into the source of the mass spectrometer using a syringe pump at a rate of ˜8 μl/min, The SPS function of the software (LC/MSD Trap Software 4.1 Build 143, MSD Trap Control Version 5.0 Build 65) was used to tune the instrument with the target mass set to the mass of the substrate, the sample stability set to 50% and the drive level set to 100%. Data were acquired over the scan range of 100-2200 m/z by accumulating 30,000 ions per scan. Capillary voltage was set to 3000 V. Nitrogen was used as the drying gas while helium was used as the nebulizing gas, with flow rates of 5 and 15 liters/min, respectively. In each case a minimum of ten spectra were averaged.
For the experiments determining the order of action of the enzymes, reactions were carried out with 100 μM substrate, 2 mM CaCl2, 5 μM enzyme and various buffers at 37° C. overnight. Samples were diluted 1:10 in MeOH prior to analysis in the ESI, and the carrier solvent was H2O:MeOH (1:10, v/v). For the time course experiments showing desulfation of different unlabeled monosaccharides, reactions were carried out with 2.5 mM substrate, 5 mM CaCl2, 1 μM enzyme and 50 mM acetate buffer at pH 5.5 for the 6-O-sulfatase and pH 6.0 for the N-sulfamidase at 37° C. Reactions were quenched by diluting the samples 1:4 in MeOH. The carrier solvent was H2O:MeOH (1:4, v/v). In these experiments, 4-MU-GlcNS was added prior to injection as an internal standard to monitor ionization efficiency and mass accuracy within the source and trap.

[2] = Fluorimetric arylsulfatase assay using 4-MUS; assay type: biochemical
Experimental: Arylsulfatase activity was measured independently using two chromogenic substrates, 4-catechol-sulfate and 4-methylumbelliferyl-sulfate (4-MUS). The catechol substrate assay was conducted generally as described (Beil et al., 1995 Eur J Biochem 229, 385-394). Briefly, 10 mM substrate were incubated with ˜30 μM recombinant enzyme overnight (12-15 hours) at 37° C. in a 100 μL reaction which included 50 mM MES pH 7.0 and +2 mM CaCl2. Reactions were quenched by the addition of 5 μL 5M NaOH and colorimetric activity determined spectroscopically at 515 nm. Fluorimetric arylsulfatase assay using 4-MUS was as described (Morimoto-Tomita et al., 2002 J Biol Chem 277, 49175-85) with some modifications. Reaction conditions included 10 μM enzyme, 2 mM 4-MUS, 50 mM sodium acetate, pH 6.0, and 5 mM CaCl2 in a 20 μL reaction volume. The enzyme incubation temperature was 30° C. Activity was measured as a function of time ranging from 3 to 24 hours; the reactions were quenched by the addition of 200 μL 0.5 M Na2CO3, pH 10.7. Detection of fluorescent methylumbelliferone was measured at this alkaline pH using a SpectraMax microtiter plate reader ([…], Sunnyvale, Calif.) set at excitation and emission wavelengths of 360 and 440 nm, respectively. Fluorescence intensity was corrected against background (minus enzyme control). In both assays, 0.5 unit of arylsulfatase from Aerobacter aerogenes (Sigma, St. Louis, Mo.) was used as a positive control.

[3] = Desulfation of unsaturated heparin disaccharides by capillary electrophoresis; assay type: biochemical; details: ΔU±2SHNAc,6S, ΔU±2SHNS,6S (6-O-sulfatase); ΔU±2SHNS+6S (N-sulfamidase)
Experimental: The ability of both enzymes to desulfate unsaturated heparin and chondroitin disaccharides was assessed essentially as described for capillary electrophoresis based compositional analyses of enzymatically generated glycosaminoglycan di- and tetra-saccharides (Venkataraman et al., 1999 Science 286, 537-542). For these studies, the following disaccharide substrates were tested: ΔUGlcNAc,6S; ΔU2SGlcNAc,6S; ΔUGlcNS; ΔUGlcNS,6S; ΔU2SGlcNS,6S; and ΔUGalNac,6S. Reactions included 500 μM substrate, 10 μM enzyme, 50 mM sodium acetate, pH 6.5 and +/−2 mM CaCl2 in a 20 μL reaction volume.

[4] = Compositional analyses of sulfatase treated heparin; assay type: biochemical; details: 8 hours preincubation, then heparinase I and III
Experimental: 20 μg heparin were preincubated with 10 μM 6-O-sulfatase or N-sulfamidase for 8 hours at 30° C. in a 20 μL reaction which included 25 mM sodium acetate, pH 7.0 and 2 mM calcium acetate, pH 7.0. Following this preincubation, enzymes were inactivated by heat denaturation at 95° C. for 10 minutes and heparin exhaustively digested overnight at 37° C. by the addition of 2 μL of a concentrated enzyme cocktail containing heparinase I and III. Subsequent CE-based compositional analyses of heparinase-derived disaccharides were completed as described (Venkataraman et al., 1999 Science 286, 537-542).

[5] = Sequential degradation of heparin oligosaccharide by exo-enzymes, MALDI-MS; assay type: biochemical; details: after 2-O-sulfatase and Δ4,5 glycuronidase
Experimental: The purified pentasulfated tetrasaccharide ΔU2SHNS,6SIHNS,6S was provided by Dr. I. Capila (Momenta Pharmaceuticals, Cambridge, Mass.). Enzyme sequence was as follows: 2-O-sulfatase→Δ4,5 glycuronidase→6-O-sulfatase→N-sulfamidase. After each step, the enzyme was heat inactivated and 20 μL aliquots removed prior to the addition of the next enzyme in the sequence. Initial reaction conditions included 20 mM Tris, pH 7.2 and 60 nanomoles of tetrasaccharide in a 120 μL reaction volume. All enzyme reactions were carried out at 30° C. Enzyme specific conditions included the following: 1) 2-O-sulfatase, 1 μM enzyme, 6 hours; 2) Δ4,5 glycuronidase, 1 μM enzyme, 6 hours; 3) 6-O-sulfatase, 5 μM enzyme, 5 mM CaCl2, 12-15 hours; 4) N-sulfamidase, same conditions as for 6-O-sulfatase. Molecular masses of enzyme products were determined by MALDI mass spectrometry using established methods (Rhomberg et al., 1998, Proc Natl Acad Sci USA 95, 12232-12237).

[6] = Storage stability of purified enzymes; assay type: physicochemical; details: 4° C., ~10 mg/mL
Experimental: Final protein concentrations were determined colorimetrically using the Bradford Assay (Bio-Rad, Hercules, Calif.) and confirmed by UV absorption spectroscopy using theoretical molar extinction coefficients (ε280) of 94,730 M^−1 (61,572 Da) and 86,340 (53,193 Da) for the NH2-terminally truncated ORF B (6-O-sulfatase) and ORF C(N-sulfamidase), respectively. These values were calculated for thrombin-cleaved proteins lacking a 6×His purification tag. Enzymes were stored at 4° C. at a concentration of ˜10 mg/mL.

hydrolysis of 4-MU sulfate [2] | rate of 4-MU sulfate hydrolysis relative to the ORF C protein [2] | effect of sulfatase pretreatment of unfractionated heparin on heparinase-derived cleavage products [4] | Molecule | effect of the presence of a 3-O-sulfate [1] | requirement at the 2-amino position of glucosamine [1] | comparative kinetic analysis GlcNAc,6S vs. GlcNS,6S ([1]; time course) | desulfation of unsaturated heparin disaccharides [3] | desulfation of the trisaccharides at the non-reducing end [5] | retention of enzyme activity on storage [6] | activity at the 2-amino position when a second sulfate at the 6-O position is present ([1]; substrate HNS,6S)
partly hydrolyze | at least 3 fold | no effect on the compositional profile | Flavobacterium heparinum 6-O-sulfatase (ORF B), recombinant, NH2-terminal truncation lacking signal sequence, SEQ ID NO: 2 (Pedobacter heparinus DSM 2366) (protein, E. coli BL21(DE3), N-terminal 6xHis removed by thrombin) TLMSCQQPKPAESAKRPNIVFIMTDDHTIQAISAYGSKLVKTPNLDRIANEGMLFNNCFVTNAVCGPSRATILTGKYSHLNGLTDNSKVFDSTQVIYPQLLKKAGYQTAMIGKWHLGSTPMGFDYYSILPNQGQYYQPEFIENGHLVKEKGYVTDLITDKAIGFLEKRDHDKPFLMIYQHKAPHRNWLPAPRHLGMFDDTVFPEPANLLDDFKGRGRAAKEQLMNISTDMWPAWDLKMLSTAQLDSMAKLPVSPKFKDAKGDDYQQANDPSLDKARFFEVYNRMTDAEKVQWRKVYDKRVAEFKRLNPKGADLVRWKYQQYMRDYLACVVSVDENVGRLMDYLKKIGELDNTIIVYTSDQGFYLGEHGYFDKRFMYDESFRTPLMVRYPPSVKAGSVSNAFAMNLDFAPTLLDYAGVKIPADMQGLSLRPVLDNAGKSPENWRKAVYYHYYEFPSWHMVKRHYGIRTERYKLIHFYNDIDEWELYDMQKDPHEMQNLYNDKAYEPIIKDLKVQMKKLQVQYKDTNPTEAL | completely inhibited | required a substituted amine (acetate or sulfate) at the 2-amino position | only a modest preference of the enzyme for the monosulfated substrate | None of the unsaturated disaccharides were desulfated | able to singularly desulfate both trisaccharides | Full enzyme activity was retained for several months | 
only negligible activity |  | no effect on the compositional profile | Flavobacterium heparinum N-sulfamidase (ORF C), recombinant, NH2-terminal truncation lacking signal sequence, SEQ ID NO: 4 (Pedobacter heparinus DSM 2366) (protein, E. coli BL21(DE3), N-terminal 6xHis removed by thrombin) SCTSPEKKTDRPNILMIMSDNQSWNHVGSYGDQTVRTPNMDRIAKEGVRFTNAFCSSPSCTPARAGMLTGQDIWRLEDGGNLWGVLPVKYKVYPDLLEEAGYAIGFQGKGWGPGSFEANKRPRNPAGNEFKSFGAFLKDKKEGPWCYWISSHEPHRPYVEGSGEKAGIDPNKVKVPAYLPDHISIRKDIADYYAAVETFDRELGEALDQLKASGELDNTVIVVCSDNGWQMPRGLANLYDFGTHVPLIISWPGKFKQDVVADNLVTLNDLAPTFLQLGKVPVPADMTGKSLLPIVEAGKKDEKPRDYVVLGRERHAFVRRHGLGYPGRAIRTKDYLYIKNYEPNRWPAGDPPFYGDIDPYMFNWPGETKYYLIEHKDDPKVKSFFELGMGKRPAEELFDINKDPDELHNLAALPEYQKIKQELVAKLRNYLVATKDPRETNGNIQIWDTAAYFSEIDKTPKPSKEMQKRFKLDSSYNYLK | completely inhibited |  |  | None of the unsaturated disaccharides were desulfated | not able to do so | Full enzyme activity was retained for several months | absolutely abolished

Source: patent publication US8846363B2, “Compositions of and methods of using sulfatases from Flavobacterium heparinum” (priority 2007, dated 2014)
